From the RNAGym collection of RNA variant scans (doi:10.7554/elife.80360)

B1: HDV Ribozyme (parent)
chain: GGCCGGCAUGGUCCCAGCCUCCUCGCUGGCGCCGGCUGGGCAACAUUCCGAGGGGACCGUCCCCUCGGUAAUGGCGAAUGGGACCCA

Variants of: B1
Assay: self-cleavage, relative activity (ratio to wild type); higher = more cleavage; co-transcriptional
G1C G50U gave a self-cleavage of 0.231.
For G1C G50A, the self-cleavage was 0.277.
With G1C G50C the self-cleavage was 0.342.
G1U C26A gave a self-cleavage of 0.288.
G1U C24U gave a self-cleavage of 0.409.
For G1C G5C, the self-cleavage was 0.
Work on G1C G29C yielded a self-cleavage of 0.0665.
With G1U G11U the self-cleavage was 0.439.
Variant G1U G11A has a self-cleavage of 0.364.
For G1C G54C, the self-cleavage was 0.26.
In the case of G1C G54U, the self-cleavage is reported as 0.396.
G1U A42C showed a self-cleavage of 0.332.
With G1U A42G the self-cleavage was 0.403.
G1C C62A showed a self-cleavage of 0.101.
Work on G1C C62U yielded a self-cleavage of 0.282.
Variant G1C C62G has a self-cleavage of 0.0831.
In the case of G1U C14U, the self-cleavage is reported as 0.434.
For G1C C57G, the self-cleavage was 0.222.
G1C C57U showed a self-cleavage of 0.252.
Work on G1C G6U yielded a self-cleavage of 0.217.
In the case of G1C U79C, the self-cleavage is reported as 0.177.
In the case of G1C U79A, the self-cleavage is reported as 0.237.
Work on G1U C58U yielded a self-cleavage of 0.401.
In the case of G1U C58A, the self-cleavage is reported as 0.237.
G1U C36U showed a self-cleavage of 0.318.
Work on G1U C36G yielded a self-cleavage of 0.306.
G1C G82U showed a self-cleavage of 0.095.
G1C G82C showed a self-cleavage of 0.0504.
With G1U C22A the self-cleavage was 0.441.
In the case of G1U G10A, the self-cleavage is reported as 0.387.
G1U A43G gave a self-cleavage of 0.147.
Variant G1U A43U has a self-cleavage of 0.225.
Variant G1U A43C has a self-cleavage of 0.425.
With G1C C48A the self-cleavage was 0.293.
Work on G1C G76U yielded a self-cleavage of 0.115.
G1C U37C gave a self-cleavage of 0.128.
For G1C U37G, the self-cleavage was 0.
G1C C61G showed a self-cleavage of 0.0504.
G1C C61U gave a self-cleavage of 0.185.
G1C G52A gave a self-cleavage of 0.166.
G1C G52U showed a self-cleavage of 0.219.
With G1U A16G the self-cleavage was 0.256.
G1U A16C gave a self-cleavage of 0.277.
Work on G1U A16U yielded a self-cleavage of 0.262.
G1U C75U showed a self-cleavage of 0.321.
Variant G1U C75A has a self-cleavage of 0.277.
In the case of G1C G10U, the self-cleavage is reported as 0.143.
Work on G1C G55A yielded a self-cleavage of 0.106.
Work on G1U C63A yielded a self-cleavage of 0.391.
In the case of G1U C63G, the self-cleavage is reported as 0.453.
For G1U C63U, the self-cleavage was 0.535.
For G1C U27G, the self-cleavage was 0.277.
In the case of G1C U27A, the self-cleavage is reported as 0.185.
For G1C U23A, the self-cleavage was 0.128.
With G1C U72G the self-cleavage was 0.
G1U C32A gave a self-cleavage of 0.289.
With G1C G39C the self-cleavage was 0.0519.
In the case of G1C G53U, the self-cleavage is reported as 0.213.
In the case of G1C G53C, the self-cleavage is reported as 0.332.
Variant G1C C84A has a self-cleavage of 0.166.
In the case of G1C C84U, the self-cleavage is reported as 0.128.
G1C C21G gave a self-cleavage of 0.
In the case of G1C C21U, the self-cleavage is reported as 0.
For G1C C21A, the self-cleavage was 0.
Work on G1C C64G yielded a self-cleavage of 0.244.
G1C C64A showed a self-cleavage of 0.231.
G1C G34U gave a self-cleavage of 0.0692.
G1U A45G gave a self-cleavage of 0.291.
With G1U A45U the self-cleavage was 0.441.
With G1U A45C the self-cleavage was 0.453.
Variant G1C U9G has a self-cleavage of 0.104.
For G1C U9C, the self-cleavage was 0.
G1U A70C gave a self-cleavage of 0.302.
Work on G1U A70G yielded a self-cleavage of 0.536.
For G1C C30G, the self-cleavage was 0.128.
With G1C G68A the self-cleavage was 0.158.
G1C G74C gave a self-cleavage of 0.
G1C G74A showed a self-cleavage of 0.0678.
With G1C C75U the self-cleavage was 0.227.
For G1C C75G, the self-cleavage was 0.178.
Variant G1U C30G has a self-cleavage of 0.282.
With G1U C30U the self-cleavage was 0.35.
G1U G17U gave a self-cleavage of 0.309.
For G1U G2A, the self-cleavage was 0.262.
With G1U C3U the self-cleavage was 0.696.
For G1U C3A, the self-cleavage was 0.654.
In the case of G1U C66U, the self-cleavage is reported as 0.296.
For G1C C22A, the self-cleavage was 0.203.
Variant G1C C22G has a self-cleavage of 0.
For G1C C63U, the self-cleavage was 0.0898.
Work on G1U C44A yielded a self-cleavage of 0.479.
With G1U C44G the self-cleavage was 0.271.
Work on G1C C66A yielded a self-cleavage of 0.19.
In the case of G1C C66G, the self-cleavage is reported as 0.128.
For G1C C66U, the self-cleavage was 0.208.
In the case of G1U C33G, the self-cleavage is reported as 0.248.
G1U C33U gave a self-cleavage of 0.436.
G1U G28A gave a self-cleavage of 0.292.
Variant G1C G25A has a self-cleavage of 0.0755.
For G1C G25U, the self-cleavage was 0.0665.
G1C C26A gave a self-cleavage of 0.166.
Variant G1C C26G has a self-cleavage of 0.227.
In the case of G1C U60C, the self-cleavage is reported as 0.0639.
In the case of G1U C49U, the self-cleavage is reported as 0.391.
In the case of G1C C86A, the self-cleavage is reported as 0.0978.
Work on G1C C86G yielded a self-cleavage of 0.268.
For G1C G40U, the self-cleavage was 0.189.
G1C G40A gave a self-cleavage of 0.111.
Work on G1U A83C yielded a self-cleavage of 0.259.
With G1U A83G the self-cleavage was 0.461.
Variant G1U A56G has a self-cleavage of 0.521.
Variant G1U A56U has a self-cleavage of 0.394.
G1U A87G gave a self-cleavage of 0.332.
G1U A87C gave a self-cleavage of 0.408.
G1C G80U showed a self-cleavage of 0.0484.
For G1C G80A, the self-cleavage was 0.0405.
With G1C C41U the self-cleavage was 0.229.
Work on G1C C41A yielded a self-cleavage of 0.123.
Work on G1C C24A yielded a self-cleavage of 0.142.
With G1C C24G the self-cleavage was 0.0462.
For G1C U47C, the self-cleavage was 0.399.
G1C G28A gave a self-cleavage of 0.0405.
In the case of G1U C13A, the self-cleavage is reported as 0.321.
In the case of G1U C84A, the self-cleavage is reported as 0.408.
With G1U C86G the self-cleavage was 0.289.
G1U C86U gave a self-cleavage of 0.212.
G1U C62G showed a self-cleavage of 0.391.
G1U C62A gave a self-cleavage of 0.248.
With G1U C62U the self-cleavage was 0.443.
With G1U G6U the self-cleavage was 0.429.
G1C G59U gave a self-cleavage of 0.0437.
In the case of G1C G59A, the self-cleavage is reported as 0.19.
In the case of G1C G31C, the self-cleavage is reported as 0.
Work on G1C C58A yielded a self-cleavage of 0.297.
With G1C C58G the self-cleavage was 0.199.
In the case of G1C C49U, the self-cleavage is reported as 0.145.
Work on G1C C49G yielded a self-cleavage of 0.0898.
G1U C48A showed a self-cleavage of 0.465.
Variant G1U C85U has a self-cleavage of 0.321.
G1U C85A showed a self-cleavage of 0.361.
G1C G67A showed a self-cleavage of 0.0898.
For G1C G67C, the self-cleavage was 0.111.
For G1C G67U, the self-cleavage was 0.0739.
For G1U C19A, the self-cleavage was 0.383.
G1U C19G showed a self-cleavage of 0.348.
With G1C C36A the self-cleavage was 0.151.
G1C C33U gave a self-cleavage of 0.
In the case of G1C C33G, the self-cleavage is reported as 0.
Variant G1C G2U has a self-cleavage of 0.256.
In the case of G1C G2A, the self-cleavage is reported as 0.138.
For G1C U12C, the self-cleavage was 0.175.
With G1U G25U the self-cleavage was 0.248.
G1U A77C gave a self-cleavage of 0.494.
G1U A77G showed a self-cleavage of 0.406.
G1U C18G showed a self-cleavage of 0.151.
Work on G1C C85A yielded a self-cleavage of 0.161.
Variant G1C U65G has a self-cleavage of 0.
With G1C U65A the self-cleavage was 0.
In the case of G1U C4A, the self-cleavage is reported as 0.277.
With G1U C4U the self-cleavage was 0.251.
G1C G73A gave a self-cleavage of 0.201.
G1U C64U showed a self-cleavage of 0.451.
Work on G1U C21A yielded a self-cleavage of 0.397.
In the case of G1U C21U, the self-cleavage is reported as 0.348.
G1U C21G showed a self-cleavage of 0.312.
Work on G1U A51U yielded a self-cleavage of 0.462.
G1C U69G gave a self-cleavage of 0.208.
